According to US20040241778:

Key:
[1] = biological target: IGFBP-5 (commercially available, upstate biotechnology), P24593
[2] = biological target: IGFBP-5-FLAG protein (full-length IGFBP-5 with the FLAG tag of SEQ ID NO: 12 at the C-terminus), P24593
[3] = biological target: IGFBP-3 (commercially available, upstate biotechnology), P17936
Chain of IGFBP-3 (commercially available, upstate biotechnology), P17936 (P17936 28-291): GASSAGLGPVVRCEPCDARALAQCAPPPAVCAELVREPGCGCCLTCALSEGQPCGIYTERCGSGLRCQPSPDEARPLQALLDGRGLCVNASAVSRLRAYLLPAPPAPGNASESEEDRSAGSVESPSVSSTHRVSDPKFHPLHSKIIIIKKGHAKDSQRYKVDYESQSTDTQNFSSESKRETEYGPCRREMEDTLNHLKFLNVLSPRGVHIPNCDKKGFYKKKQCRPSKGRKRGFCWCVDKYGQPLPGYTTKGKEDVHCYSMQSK

Chain of IGFBP-5 (commercially available, upstate biotechnology), P24593 (P24593 21-272): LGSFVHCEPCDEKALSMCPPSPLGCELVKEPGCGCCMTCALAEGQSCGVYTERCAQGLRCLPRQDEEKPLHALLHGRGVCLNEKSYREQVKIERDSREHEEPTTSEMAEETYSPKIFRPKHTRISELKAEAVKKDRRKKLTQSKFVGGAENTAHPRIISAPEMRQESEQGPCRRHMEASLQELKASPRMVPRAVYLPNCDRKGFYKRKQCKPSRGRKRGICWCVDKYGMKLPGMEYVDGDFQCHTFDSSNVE
Chain of IGFBP-5-FLAG protein (full-length IGFBP-5 with the FLAG tag of SEQ ID NO: 12 at the C-terminus), P24593 (P24593 other isoform, or with tags, fused parts or gaps): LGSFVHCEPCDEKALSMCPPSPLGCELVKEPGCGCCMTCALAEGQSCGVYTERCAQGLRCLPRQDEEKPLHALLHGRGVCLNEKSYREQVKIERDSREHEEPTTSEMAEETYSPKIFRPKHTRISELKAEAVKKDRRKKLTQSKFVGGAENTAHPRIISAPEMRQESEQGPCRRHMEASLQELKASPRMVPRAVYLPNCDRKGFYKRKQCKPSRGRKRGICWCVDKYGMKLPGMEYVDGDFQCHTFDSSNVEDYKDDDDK

B1: MD8S-FLAG protein (extracellular region of human MD8, amino acids 1 to 646 of SEQ ID NO: 2, with a C-terminal FLAG tag) (protein)
chain: IAPSRPWALMEQYEVVLPRRLPGPRVRRALPSHLGLHPERVSYVLGATGHNFTLHLRKNRDLLGSGYTETYTAANGSEVTEQPRGQDHCFYQGHVEGYPDSAASLSTCAGLRGFFQVGSDLHLIEPLDEGGEGGRHAVYQAEHLLQTAGTCGVSDDSLGSLLGPRTAAVFRPRPGDSLPSRETRYVELYVVVDNAEFQMLGSEAAVRHRVLEVVNHVDKLYQKLNFRVVLVGLEIWNSQDRFHVSPDPSVTLENLLTWQARQRTRRHLHDNVQLITGVDFTGTTVGFARVSAMCSHSSGAVNQDHSKNPVGVACTMAHEMGHNLGMDHDENVQGCRCQERFEAGRCIMAGSIGSSFPRMFSDCSQAYLESFLERPQSVCLANAPDLSHLVGGPVCGNLFVERGEQCDCGPPEDCRNRCCNSTTCQLAEGAQCAHGTCCQECKVKPAGELCRPKKDMCDLEEFCDGRHPECPEDAFQENGTPCSGGYCYNGACPTLAQQCQAFWGPGGQAAEESCFSYDILPGCKASRYRADMCGVLQCKGGQQPLGRAICIVDVCHALTTEDGTAYEPVPEGTRCGPEKVCWKGRCQDLHVYRSSNCSAQCHNHGVCNHKQECHCHAGWAPPHCAKLLTEDYKDDDDK
In the case of B1, the “activity of digesting IGFBP-5 (overnight reaction at 37 C, SDS-PAGE and western blot)” value [1] is reported as “new plural bands within the range of 12 to 25 kDa were detected in the case of IGFBP-5”, the “activity of digesting recombinant IGFBP-5 (overnight reaction at 37 C, SDS-PAGE and western blot with biotinylated M2 antibody)” value [2] is reported as “recombinant IGFBP-5, which was detected in the control without the MD8S enzyme solution, was made to disappear by adding the MD8S enzyme solution” and the “activity of digesting IGFBP-3 (overnight reaction at 37 C, SDS-PAGE and western blot)” value [3] is reported as “a new band of 25 kDa was detected in the case of IGFBP-3”.
